PMC10653834, “Conformational variability of cyanobacterial ChlI, the AAA+ motor of magnesium chelatase involved in chlorophyll biosynthesis” (mBio, 2023)

Columns and labels:
[1] = molecular target: T1, ChlI (Nostoc sp. PCC 7120 = FACHB-418, UniProt P58571); assay: cryo-EM structure of hexamers under turnover; type: binding; settings: ADP formed from 10 mM ATP, 50 mM MgCl2, pH 7.5; nucleotide pocket at monomer interfaces
T1 construct: full length, N-terminal His6 tag (kept), pET15b, E. coli LOBSTR; approximately 40 kDa; ATP-induced hexamer (also pentamer); residues 1-13 and 354-374 not modelled

[2] = molecular target: T1, ChlI; assay: cryo-EM structure of hexamers under turnover; malachite green ATPase assay; type: binding; settings: 10 mM ATP, 50 mM MgCl2, pH 7.5; nucleotide pocket at monomer interfaces; hydrolysis at 37 °C
[3] = molecular target: the molecule itself; assay: mass photometry; ChlI incubated at 0.5 mg/mL in Tris buffer with 10 mM ADP and 50 mM MgCl2; diluted before measurement
[4] = molecular target: the molecule itself; assay: mass photometry; ChlI incubated at 0.5 mg/mL in Tris buffer (20 mM Tris, 200 mM NaCl, pH 7.5) alone or with 50 mM MgCl2, no nucleotide; diluted before measurement
[5] = molecular target: the molecule itself; assay: cryo-EM structure; 0.5 mg/mL ChlI with 10 mM ATP, 50 mM MgCl2, 0.05% LMNG, 1 mM DTT; no symmetry applied

## Nc1ncnc2c1ncn2[C@@H]1O[C@H](COP(=O)(O)OP(=O)(O)O)[C@@H](O)[C@H]1O [ADP]
[1]
  cryo-EM structure of hexamers under turnover: conformation B has ATP bound in four monomers and ADP in two

## Nc1ncnc2c1ncn2[C@@H]1O[C@H](COP(=O)(O)OP(=O)(O)OP(=O)(O)O)[C@@H](O)[C@H]1O [ATP]
[2]
  cryo-EM structure of hexamers under turnover; malachite green ATPase assay: Conformation A is characterized by ATP molecules bound in five monomers and ADP in one

B1: Nostoc sp. PCC 7120 ChlI, motor (AAA+) subunit of magnesium chelatase (enzyme, UniProt P58571 1-374, looked up)
chain: MTPTAQTTASARRVVFPFTAIVGQEEMKLALLLNVIDPKIGGVMIMGDRGTGKSTTIRALADLLPEIPVVANDPFNSDPSDPDLMSDEVRQKSGTGAEIPIEFKKVQMVDLPLGATEDRVCGTIDIEKALSEGVKAFEPGLLAKANRGILYVDEVNLLDDHLVDVLLDSAASGWNTVEREGISIRHPARFVLVGSGNPEEGELRPQLLDRFGMHAEIHTVKEPALRVQIVEQRSEFDQNPPTFLEKYNPEQTALQKKIVEAQKLLPEVKLDYDLRVKISEVCSELDVDGLRGDIVTNRAAKALTAYEGRTEVTVDDIRRVITLCLRHRLRKDPLESIDSGYKVEKVFARIFGVELLEDDSSQKNGAGQIKTGVR
notes: Magnesium chelatase subunit ChlI of Nostoc sp; PCC 7120, gene all0152, amplified from genomic DNA; The printed forward primer places ATG and six His codons before codon 2 (ACT CCA ACA ...); the reverse primer includes the stop codon; Model building counts residues 1-374; Oligomeric state depends on the nucleotide (monomers/dimers without; pentamers and hexamers with ATP and MgCl2); also called …
[3]
  stoichiometry N: 6
[4]
  stoichiometry N: 2
[5]
  stoichiometry N: 5
